Paper PMC6555819, “Comprehensive study of nuclear receptor DNA binding provides a revised framework for understanding receptor specificity”
Substitutions are numbered along the chain they refer to.

B1: NRC3_wobSeed71_DR2_G12T_o1 (dsDNA)
DNA 1: GCCGAACGAGGTCATGAGTTGATAGCAAATGCCGATGCGATTGACAGCGTAGAATGAAGG
DNA 2: CCTTCATTCTACGCTGTCAATCGCATCGGCATTTGCTATCAACTCATGACCTCGTTCGGC
B2: NRC3_wobSeed136_DR5_G11T_o1 (dsDNA)
DNA 1: GCTAGCCTAGTTCATTCAGGGGCCAGTATAGAAAGCGCGATTGACAGCGTAGAATGAAGG
DNA 2: CCTTCATTCTACGCTGTCAATCGCGCTTTCTATACTGGCCCCTGAATGAACTAGGCTAGC
B3: NRC3_wobSeed66_DR2_T16G_o1 (dsDNA)
DNA 1: GCAATACAGGGTCACGAGGCCAGAGTAGGTACGAATGCGATTGACAGCGTAGAATGAAGG
DNA 2: CCTTCATTCTACGCTGTCAATCGCATTCGTACCTACTCTGGCCTCGTGACCCTGTATTGC
B4: NRC3_wobSeed14_DR0_T23G_o1 (dsDNA)
DNA 1: GCCCTGCTAGGTCATGGTCAGCGAATCTACAGTATGGCGATTGACAGCGTAGAATGAAGG
DNA 2: CCTTCATTCTACGCTGTCAATCGCCATACTGTAGATTCGCTGACCATGACCTAGCAGGGC
B5: NRC3_random_hg19_241_o1 (dsDNA)
DNA 1: GCTGTAACGTGGGCTTCACTGTCGGGTCCAGCCCACGCGATTGACAGCGTAGAATGAAGG
DNA 2: CCTTCATTCTACGCTGTCAATCGCGTGGGCTGGACCCGACAGTGAAGCCCACGTTACAGC
B6: NRC3_wobSeed137_DR5_A5T_o1 (dsDNA)
DNA 1: GCATTTGTAGGTTACATCCGGGTCATTCAGGCTATGGCGATTGACAGCGTAGAATGAAGG
DNA 2: CCTTCATTCTACGCTGTCAATCGCCATAGCCTGAATGACCCGGATGTAACCTACAAATGC
B7: NRC3_wobSeed76_DR3_T5A_o1 (dsDNA)
DNA 1: GCCCAACTGGGCCAAAAAGGTCATTGATGCCGATAAGCGATTGACAGCGTAGAATGAAGG
DNA 2: CCTTCATTCTACGCTGTCAATCGCTTATCGGCATCAATGACCTTTTTGGCCCAGTTGGGC
B8: NRC3_wobSeed76_DR3_A17G_o1 (dsDNA)
DNA 1: B7 DNA 1 with A5T, A17G
DNA 2: B7 DNA 2 with T44C, T56A
B9: NRC3_wobSeed76_DR3_G20T_o1 (dsDNA)
DNA 1: B7 DNA 1 with A5T, G20T
DNA 2: B7 DNA 2 with C41A, T56A
B10: NRC3_wobSeed110_DR4_A15T_o1 (dsDNA)
DNA 1: GCTCTGCTAGGTCATCGATGGTCAGCTAATCTGCTAGCGATTGACAGCGTAGAATGAAGG
DNA 2: CCTTCATTCTACGCTGTCAATCGCTAGCAGATTAGCTGACCATCGATGACCTAGCAGAGC
B11: NRC3_wobSeed110_DR4_C26T_o1 (dsDNA)
DNA 1: B10 DNA 1 with T15A, C26T
DNA 2: B10 DNA 2 with G35A, A46T
B12: NRC3_wobSeed28_DR1_A14T_o1 (dsDNA)
DNA 1: GCCCTACTGGGCCTAAGGTCATTGATTCCAATGCTCGCGATTGACAGCGTAGAATGAAGG
DNA 2: CCTTCATTCTACGCTGTCAATCGCGAGCATTGGAATCAATGACCTTAGGCCCAGTAGGGC
B13: NRC3_wobSeed15_DR0_A18C_o1 (dsDNA)
DNA 1: GCCGAACTAGGTCAAGGCCAGTGAATCTCCGCACGCGCGATTGACAGCGTAGAATGAAGG
DNA 2: CCTTCATTCTACGCTGTCAATCGCGCGTGCGGAGATTCACTGGCCTTGACCTAGTTCGGC
B14: NRC3_wobSeed44_DR1_G17T_o1 (dsDNA)
DNA 1: GCTGAATGAGGTTAAATATCAGGGAACGTGGCGTCGGCGATTGACAGCGTAGAATGAAGG
DNA 2: CCTTCATTCTACGCTGTCAATCGCCGACGCCACGTTCCCTGATATTTAACCTCATTCAGC
B15: NRC3_wobSeed87_DR3_T15C_o1 (dsDNA)
DNA 1: GCCGAACTAGGTCACCCAGGACAGTGAATACATTGAGCGATTGACAGCGTAGAATGAAGG
DNA 2: CCTTCATTCTACGCTGTCAATCGCTCAATGTATTCACTGTCCTGGGTGACCTAGTTCGGC
B16: NRC3_wobSeed17_DR0_T21G_o1 (dsDNA)
DNA 1: GCATATGTAGGTTAGGGTCAGTCAGAAAGTAGGGAAGCGATTGACAGCGTAGAATGAAGG
DNA 2: CCTTCATTCTACGCTGTCAATCGCTTCCCTACTTTCTGACTGACCCTAACCTACATATGC
B17: NRC3_wobSeed12_DR0_T19C_o1 (dsDNA)
DNA 1: GCCCGACTGGGGCAAGGTCACCATAACGCACAGCCAGCGATTGACAGCGTAGAATGAAGG
DNA 2: CCTTCATTCTACGCTGTCAATCGCTGGCTGTGCGTTATGGTGACCTTGCCCCAGTCGGGC
B18: NRC3_wobSeed99_DR4_G16C_o1 (dsDNA)
DNA 1: GCTCTCGGAGGACACCAAAGGTCAGAGCTCGACATCGCGATTGACAGCGTAGAATGAAGG
DNA 2: CCTTCATTCTACGCTGTCAATCGCGATGTCGAGCTCTGACCTTTGGTGTCCTCCGAGAGC
B19: NRC3_wobSeed99_DR4_G16T_o1 (dsDNA)
DNA 1: B18 DNA 1 with C16T
DNA 2: B18 DNA 2 with G45A
B20: NRC3_wobSeed27_DR1_A9T_o1 (dsDNA)
DNA 1: GCACTCGGTGGACAAAGGTCAGAGCTACGCCAGTGAGCGATTGACAGCGTAGAATGAAGG
DNA 2: CCTTCATTCTACGCTGTCAATCGCTCACTGGCGTAGCTCTGACCTTTGTCCACCGAGTGC
B21: NRC3_wobSeed39_DR1_A16G_o1 (dsDNA)
DNA 1: GCCGAACTAGGTCAAGGGACAGTGAAAGGCGACGTAGCGATTGACAGCGTAGAATGAAGG
DNA 2: CCTTCATTCTACGCTGTCAATCGCTACGTCGCCTTTCACTGTCCCTTGACCTAGTTCGGC
B22: NRC3_wobSeed16_DR0_C7A_o1 (dsDNA)
DNA 1: GCCAGCATAGGTCAGGGCCAGTATAGGAGGAACGTTGCGATTGACAGCGTAGAATGAAGG
DNA 2: CCTTCATTCTACGCTGTCAATCGCAACGTTCCTCCTATACTGGCCCTGACCTATGCTGGC
B23: NRC3_wobSeed46_DR1_A5G_o1 (dsDNA)
DNA 1: GCTTGCCAAGGTGAAAGGTCGTTGATGCACGCCTTGGCGATTGACAGCGTAGAATGAAGG
DNA 2: CCTTCATTCTACGCTGTCAATCGCCAAGGCGTGCATCAACGACCTTTCACCTTGGCAAGC
B24: NRC3_wobSeed4_DR0_C7G_o1 (dsDNA)
DNA 1: GCCCTAGTGGGCCAAGGTCATTGATCAGTCAAAGCAGCGATTGACAGCGTAGAATGAAGG
DNA 2: CCTTCATTCTACGCTGTCAATCGCTGCTTTGACTGATCAATGACCTTGGCCCACTAGGGC

target: PPARa:RXRa (Homo sapiens, UniProt Q07869;P19793 full;full); assay: no ligand; PBM; 270 nM : 90 nM RXRa; PBS pH 7.4, 2% milk, 0.02% Triton X-100, 1 mM DTT, BSA, 0.4 mg/ml salmon testes DNA; conditions: tags: GST kept;His cleaved; copies: 1;1; label: surface-attached array probe
Sequence (Q07869 whole entry, chain 1 of 2): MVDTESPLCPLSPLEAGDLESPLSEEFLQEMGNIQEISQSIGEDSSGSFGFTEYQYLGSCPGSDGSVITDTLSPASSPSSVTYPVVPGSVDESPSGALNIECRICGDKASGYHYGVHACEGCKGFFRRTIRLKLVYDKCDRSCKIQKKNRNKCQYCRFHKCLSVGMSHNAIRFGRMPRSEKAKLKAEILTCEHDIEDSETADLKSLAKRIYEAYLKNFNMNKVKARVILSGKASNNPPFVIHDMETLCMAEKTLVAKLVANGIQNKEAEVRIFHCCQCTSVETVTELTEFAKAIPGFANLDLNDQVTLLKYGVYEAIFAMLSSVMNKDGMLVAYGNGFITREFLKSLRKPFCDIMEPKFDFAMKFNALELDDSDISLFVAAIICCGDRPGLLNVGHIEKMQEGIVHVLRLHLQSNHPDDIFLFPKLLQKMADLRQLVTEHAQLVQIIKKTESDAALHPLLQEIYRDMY
Sequence (P19793 whole entry, chain 2 of 2): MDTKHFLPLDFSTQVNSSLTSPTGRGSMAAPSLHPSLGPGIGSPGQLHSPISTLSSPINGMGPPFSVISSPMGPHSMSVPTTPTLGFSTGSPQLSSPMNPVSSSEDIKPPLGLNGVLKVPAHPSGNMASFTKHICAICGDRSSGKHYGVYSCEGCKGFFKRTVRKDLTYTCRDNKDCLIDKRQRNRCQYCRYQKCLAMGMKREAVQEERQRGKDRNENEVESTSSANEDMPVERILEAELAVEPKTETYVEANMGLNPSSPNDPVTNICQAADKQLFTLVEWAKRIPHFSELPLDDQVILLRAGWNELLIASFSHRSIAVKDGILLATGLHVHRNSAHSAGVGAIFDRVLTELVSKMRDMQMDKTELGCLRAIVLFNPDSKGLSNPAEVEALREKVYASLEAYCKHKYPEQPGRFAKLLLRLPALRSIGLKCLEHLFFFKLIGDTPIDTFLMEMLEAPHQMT
Procedure, shortened: (§1)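 The probes on custom Agilent 4×180K protein-binding microarrays were double-stranded, with 34-nt variable regions bearing direct-repeat seeds, single-nucleotide variants, half-site ablations and random human genomic background sequences. Incubation lasted 1 h with ligand-free nuclear receptor dimers in PBS pH 7.4, 2% milk, 0.02% Triton X-100, 1 mM DTT, 0.2 mg/mL BSA and 0.4 mg/ml salmon testes DNA. Antibodies against each partner (one per run) detected bound dimers, and fluorescence scans were regression-normalized. Binding z-scores take the random background probes as reference.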

| Binder | binding signal |
| --- | --- |
| B1 | 6.51 PBM z-score against 500 random probes |
| B2 | 0.45 PBM z-score against 500 random probes |
| B3 | 6.53 PBM z-score against 500 random probes |
| B4 | 3.44 PBM z-score against 500 random probes |
| B5 | -0.77 PBM z-score against 500 random probes |

target: FXR:RXRa (Homo sapiens, UniProt Q96RI1;P19793 full;full); assay: as above; conditions: tags: His kept;His cleaved; copies: 1;1; label: surface-attached array probe
Sequence (Q96RI1 whole entry, chain 1 of 2): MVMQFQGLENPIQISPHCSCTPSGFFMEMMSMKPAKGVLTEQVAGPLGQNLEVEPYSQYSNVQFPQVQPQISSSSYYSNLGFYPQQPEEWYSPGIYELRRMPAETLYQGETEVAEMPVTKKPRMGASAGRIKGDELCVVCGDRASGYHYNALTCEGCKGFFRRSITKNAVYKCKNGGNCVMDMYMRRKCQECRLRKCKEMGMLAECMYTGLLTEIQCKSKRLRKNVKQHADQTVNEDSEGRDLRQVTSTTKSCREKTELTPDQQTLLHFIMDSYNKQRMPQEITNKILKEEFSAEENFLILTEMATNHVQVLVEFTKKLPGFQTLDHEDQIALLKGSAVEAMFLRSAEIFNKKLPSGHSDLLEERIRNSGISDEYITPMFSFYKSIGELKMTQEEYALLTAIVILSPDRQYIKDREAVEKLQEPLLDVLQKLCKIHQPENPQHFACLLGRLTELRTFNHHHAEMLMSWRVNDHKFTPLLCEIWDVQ
Sequence (P19793 whole entry, chain 2 of 2): as the sequence (P19793 whole entry, chain 2 of 2) above
Procedure, shortened: as §1

| Binder | binding signal |
| --- | --- |
| B6 | 3.26 PBM z-score against 500 random probes |
| B1 | 7.78 PBM z-score against 500 random probes |
| B7 | 3.39 PBM z-score against 500 random probes |
| B8 | 3.31 PBM z-score against 500 random probes |
| B9 | 0.49 PBM z-score against 500 random probes |
| B10 | 3.45 PBM z-score against 500 random probes |
| B11 | 3.07 PBM z-score against 500 random probes |
| B12 | 3.15 PBM z-score against 500 random probes |
| B13 | 3.52 PBM z-score against 500 random probes |
| B14 | 3.09 PBM z-score against 500 random probes |
| B15 | 3.58 PBM z-score against 500 random probes |
| B2 | 0.31 PBM z-score against 500 random probes |
| B16 | 3 PBM z-score against 500 random probes |
| B17 | 3.29 PBM z-score against 500 random probes |
| B18 | 3.18 PBM z-score against 500 random probes |
| B19 | 3.03 PBM z-score against 500 random probes |
| B3 | 7.9 PBM z-score against 500 random probes |
| B20 | 3.23 PBM z-score against 500 random probes |
| B4 | 4.17 PBM z-score against 500 random probes |
| B21 | 3.42 PBM z-score against 500 random probes |
| B5 | -0.46 PBM z-score against 500 random probes |
| B22 | 3.48 PBM z-score against 500 random probes |
| B23 | 3.55 PBM z-score against 500 random probes |
| B24 | 3.34 PBM z-score against 500 random probes |
